Test results reported in patent US20090118161A1 (BAYLOR COLLEGE OF MEDICINE, published 2009).

T1: immobilized human fibrinogen (human, UniProt P02671 20-629; P02675 31-491; P02679 27-437, limits assumed)
T1 sequence (looked up) 1: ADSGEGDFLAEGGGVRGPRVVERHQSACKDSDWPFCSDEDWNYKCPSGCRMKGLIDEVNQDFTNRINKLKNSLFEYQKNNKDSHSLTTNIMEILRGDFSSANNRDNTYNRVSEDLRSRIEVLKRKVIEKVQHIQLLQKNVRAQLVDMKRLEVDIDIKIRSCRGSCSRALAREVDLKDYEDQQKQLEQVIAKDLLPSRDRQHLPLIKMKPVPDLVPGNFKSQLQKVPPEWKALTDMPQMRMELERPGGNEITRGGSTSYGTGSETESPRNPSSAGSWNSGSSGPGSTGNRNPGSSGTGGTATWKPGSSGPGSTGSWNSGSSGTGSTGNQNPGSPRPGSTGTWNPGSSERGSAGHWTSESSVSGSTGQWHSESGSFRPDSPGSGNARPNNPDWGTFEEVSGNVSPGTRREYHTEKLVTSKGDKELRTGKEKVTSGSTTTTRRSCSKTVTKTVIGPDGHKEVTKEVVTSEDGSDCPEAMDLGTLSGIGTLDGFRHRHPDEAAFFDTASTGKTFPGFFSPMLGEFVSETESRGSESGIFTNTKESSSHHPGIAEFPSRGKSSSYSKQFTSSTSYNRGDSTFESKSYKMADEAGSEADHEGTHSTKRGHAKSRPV
T1 sequence (looked up) 2: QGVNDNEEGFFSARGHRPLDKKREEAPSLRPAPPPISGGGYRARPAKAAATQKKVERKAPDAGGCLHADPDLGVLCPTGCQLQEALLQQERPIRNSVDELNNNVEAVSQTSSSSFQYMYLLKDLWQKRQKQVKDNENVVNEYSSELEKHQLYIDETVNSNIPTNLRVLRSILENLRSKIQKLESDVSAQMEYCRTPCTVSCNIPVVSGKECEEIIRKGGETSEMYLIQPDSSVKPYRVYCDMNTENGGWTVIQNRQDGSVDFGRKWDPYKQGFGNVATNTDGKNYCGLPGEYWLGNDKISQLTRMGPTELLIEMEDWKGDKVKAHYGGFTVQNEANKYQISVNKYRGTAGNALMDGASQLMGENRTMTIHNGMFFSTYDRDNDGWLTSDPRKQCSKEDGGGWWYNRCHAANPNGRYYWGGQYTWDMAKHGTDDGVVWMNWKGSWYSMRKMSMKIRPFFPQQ
T1 sequence (looked up) 3: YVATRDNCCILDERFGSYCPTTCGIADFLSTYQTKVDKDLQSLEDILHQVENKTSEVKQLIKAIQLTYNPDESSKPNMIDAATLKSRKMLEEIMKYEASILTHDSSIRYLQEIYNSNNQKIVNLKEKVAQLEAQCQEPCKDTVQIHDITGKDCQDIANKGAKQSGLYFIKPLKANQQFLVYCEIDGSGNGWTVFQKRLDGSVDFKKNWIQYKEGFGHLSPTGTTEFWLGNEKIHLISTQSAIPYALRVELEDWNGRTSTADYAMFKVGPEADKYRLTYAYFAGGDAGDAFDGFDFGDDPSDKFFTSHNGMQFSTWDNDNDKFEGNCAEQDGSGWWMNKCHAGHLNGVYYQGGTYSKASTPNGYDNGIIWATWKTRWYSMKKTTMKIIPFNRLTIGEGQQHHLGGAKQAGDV

T2: polymerized human fibrin (human, UniProt P02671 36-629; P02675 45-491; P02679 27-437, limits assumed)
T2 construct: Immobilized polymerized fibrin; preparation not described
T2 sequence (looked up) 1: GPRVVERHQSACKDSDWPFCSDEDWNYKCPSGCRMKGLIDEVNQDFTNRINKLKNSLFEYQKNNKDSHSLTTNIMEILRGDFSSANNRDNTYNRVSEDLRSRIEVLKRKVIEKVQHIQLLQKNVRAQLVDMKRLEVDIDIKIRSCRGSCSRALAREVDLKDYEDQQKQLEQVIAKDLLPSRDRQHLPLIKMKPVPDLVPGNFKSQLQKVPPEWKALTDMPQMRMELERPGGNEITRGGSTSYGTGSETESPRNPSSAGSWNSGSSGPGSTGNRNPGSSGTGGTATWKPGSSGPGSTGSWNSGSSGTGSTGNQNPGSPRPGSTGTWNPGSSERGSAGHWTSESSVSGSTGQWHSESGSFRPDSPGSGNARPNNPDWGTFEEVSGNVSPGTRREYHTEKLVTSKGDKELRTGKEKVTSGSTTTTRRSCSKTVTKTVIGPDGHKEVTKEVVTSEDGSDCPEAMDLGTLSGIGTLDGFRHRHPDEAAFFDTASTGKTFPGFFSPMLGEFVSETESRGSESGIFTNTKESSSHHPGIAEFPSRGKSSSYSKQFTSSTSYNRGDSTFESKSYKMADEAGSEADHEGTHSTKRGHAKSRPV
T2 sequence (looked up) 2: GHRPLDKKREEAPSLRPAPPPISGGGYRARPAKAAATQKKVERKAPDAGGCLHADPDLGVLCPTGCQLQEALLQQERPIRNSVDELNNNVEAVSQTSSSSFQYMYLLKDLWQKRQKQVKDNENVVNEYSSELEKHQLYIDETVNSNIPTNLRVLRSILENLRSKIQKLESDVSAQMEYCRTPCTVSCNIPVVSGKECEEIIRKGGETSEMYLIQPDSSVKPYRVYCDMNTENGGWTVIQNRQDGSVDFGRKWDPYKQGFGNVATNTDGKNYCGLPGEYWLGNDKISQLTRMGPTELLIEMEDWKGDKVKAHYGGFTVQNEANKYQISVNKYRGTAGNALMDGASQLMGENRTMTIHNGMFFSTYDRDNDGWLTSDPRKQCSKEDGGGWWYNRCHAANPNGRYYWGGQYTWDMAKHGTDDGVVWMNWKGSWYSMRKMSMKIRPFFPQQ
T2 sequence (looked up) 3: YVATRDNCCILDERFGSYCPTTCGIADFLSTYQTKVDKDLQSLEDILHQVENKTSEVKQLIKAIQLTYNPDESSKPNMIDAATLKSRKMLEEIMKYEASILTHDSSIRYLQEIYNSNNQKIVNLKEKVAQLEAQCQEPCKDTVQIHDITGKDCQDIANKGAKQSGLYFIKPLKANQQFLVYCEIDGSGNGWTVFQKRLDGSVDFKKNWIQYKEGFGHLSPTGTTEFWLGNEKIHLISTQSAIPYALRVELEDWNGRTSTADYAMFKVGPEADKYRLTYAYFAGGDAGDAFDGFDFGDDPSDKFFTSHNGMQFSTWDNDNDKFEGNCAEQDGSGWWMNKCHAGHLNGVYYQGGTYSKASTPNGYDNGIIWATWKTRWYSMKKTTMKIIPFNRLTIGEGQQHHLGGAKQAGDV


Assays:
[1] = molecular target: T3, recombinant human vimentin (human, UniProt P08670 1-466, limits assumed); experiment: ELISA, A2 fragments on immobilized vimentin
T3 construct: also called immobilized vimentin
T3 sequence (P08670 whole entry, the tested form may be a part): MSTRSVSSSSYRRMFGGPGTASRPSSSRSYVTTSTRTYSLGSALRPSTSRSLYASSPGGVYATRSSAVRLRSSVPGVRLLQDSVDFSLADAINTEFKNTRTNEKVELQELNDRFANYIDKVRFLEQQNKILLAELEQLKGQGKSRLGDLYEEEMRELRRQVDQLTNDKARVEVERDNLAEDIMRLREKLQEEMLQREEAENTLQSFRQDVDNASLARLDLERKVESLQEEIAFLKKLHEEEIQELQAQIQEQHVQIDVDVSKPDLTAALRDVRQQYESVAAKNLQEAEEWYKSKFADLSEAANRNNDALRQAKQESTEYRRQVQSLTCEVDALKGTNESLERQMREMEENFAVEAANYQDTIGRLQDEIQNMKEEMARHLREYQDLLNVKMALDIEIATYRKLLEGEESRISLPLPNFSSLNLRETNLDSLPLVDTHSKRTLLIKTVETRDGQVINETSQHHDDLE

[2] = molecular target: T3, recombinant human vimentin; experiment: ELISA, A2 on immobilized recombinant human vimentin, detected with Anti-A2 or VP-1
[3] = molecular target: T4, multimeric von Willebrand factor purified from plasma or cryoprecipitate (UniProt P04275 764-2813); experiment: ELISA, A2 on immobilized VWF; apparent KD
T4 construct: mature; Disulfide-linked multimer of many subunits; number of subunits not fixed; Glycosylated; also called VWF; full length VWF

[4] = molecular target: T1, immobilized human fibrinogen; experiment: ELISA, increasing A2 on immobilized human fibrin(ogen), anti-His detection; half-maximal binding
[5] = molecular target: T5, recombinant VWF-A1 domain polypeptide (amino acids Q1238-P1471) (human, UniProt P04275 1238-1471); experiment: inhibition by A2 of binding of A1 domain (0.25 µM) to immobilized fixed platelets (GPIbα), static conditions
T5 construct: range 1238-1471; Expressed in E. coli with an N-terminal His tag; also called A1 polypeptide; A1 protein; not shown: N-terminal His tag from the vector

[6] = molecular target: T4, multimeric von Willebrand factor …; experiment: binding of A2 to immobilized full length VWF; half-maximal binding
[7] = molecular target: T5, recombinant VWF-A1 domain polypeptide …; experiment: binding of A2 to A1 domain polypeptide; half-maximal binding
[8] = molecular target: T4, multimeric von Willebrand factor …; experiment: binding of A2 to full length VWF; half-maximal binding
[9] = molecular target: T5, recombinant VWF-A1 domain polypeptide …; experiment: binding of A2 to immobilized A1 domain polypeptide; half-maximal binding
[10] = molecular target: T4, multimeric von Willebrand factor …; experiment: ELISA, increasing A2 on immobilized plasma VWF, anti-His detection; half-maximal binding
[11] = molecular target: T5, recombinant VWF-A1 domain polypeptide …; experiment: ELISA, increasing A2 on immobilized A1 polypeptide, Anti-A2 detection; half-maximal binding
polymerized human fibrin = molecular target: T2, polymerized human fibrin; experiment: ELISA, increasing A2 on immobilized polymerized human fibrin, anti-His detection; half-maximal binding
[12] = molecular target: T5, recombinant VWF-A1 domain polypeptide …; experiment: ELISA, A2 on immobilized A1; apparent KD

| binding result [1] | binding result [2] | Kd [3] [nM] | EC50 [4] [nM] | IC50 [5] [nM] | EC50 [6] [nM] | EC50 [7] [nM] | EC50 [8] [nM] | EC50 [9] [nM] | EC50 [10] [nM] | EC50 [11] [nM] | EC50 (polymerized human fibrin) [nM] | Kd [12] [nM] | Binder |
| --- | --- | --- | --- | --- | --- | --- | --- | --- | --- | --- | --- | --- | --- |
| binds |  |  |  |  |  |  |  |  |  |  |  |  | N-terminal fragment polypeptide of A2 (A2 G1481-Y1605) (other, Expressed in bacteria; also called N-terminal (half) of the A2 domain of VWF) GLLGVSTLGPKRNSMVLDVAFVLEGSDKIGEADFNRSKEFMEEVIQRMDVGQDSIHVTVLQYSYMVTVEYPFSEAQSKGDILQRVREIRYQGGNRTNTGLALRYLSDHSFLVSQGDREQAPNLVY |
|  | binds | ~200 | 150 | 300 | 190 | 60 | 160 | 65 | ~200 | ~65 | 150 | ~50 | recombinant VWF-A2 domain polypeptide (amino acids G1481-R1668) (other, Expressed in E. coli as a fusion protein with a His tag at the N terminus; monomeric on SDS-PAGE; also called A2 protein; VWF-A2 protein; not shown: N-terminal His tag from the vector) GLLGVSTLGPKRNSMVLDVAFVLEGSDKIGEADFNRSKEFMEEVIQRMDVGQDSIHVTVLQYSYMVTVEYPFSEAQSKGDILQRVREIRYQGGNRTNTGLALRYLSDHSFLVSQGDREQAPNLVYMVTGNPASDEIKRLPGDIQVVPIGVGPNANVQELERIGWPNAPILIQDFETLPREAPDLVLQR |
